Molecular target: T1, Nkx2.2 (in vitro translated) (UniProt P42586 1-273)
T1 sequence: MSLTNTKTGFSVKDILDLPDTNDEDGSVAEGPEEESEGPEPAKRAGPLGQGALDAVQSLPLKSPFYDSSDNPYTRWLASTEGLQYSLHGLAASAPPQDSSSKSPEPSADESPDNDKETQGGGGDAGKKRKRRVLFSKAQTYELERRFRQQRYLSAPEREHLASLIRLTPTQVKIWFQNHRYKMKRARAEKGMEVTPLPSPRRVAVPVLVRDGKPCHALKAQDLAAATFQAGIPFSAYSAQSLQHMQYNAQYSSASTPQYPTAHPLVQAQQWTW
Experiment: EMSA; EMSA as in ref 20; buffer, salt, pH and temperature not given
Settings: protein: ivt, label: 32P-dCTP Klenow fill-in, filled in with Klenow

Row | Binder | binding result (5' overhangs) | binding result (5' overhang 4 nt)
1 | Nkx6.2 +1669 (+669 in probe list) (dsDNA) DNA 1: CCGAATCCCGCGCGGGCCACTTACCGGAGCCGGCCAGTCGCGGGTCCCTC DNA 2: CTGGAGGGACCCGCGACTGGCCGGCTCCGGTAAGTGGCCCGCGCGGGATT | no binding | 
2 | Nkx2.2 AAGT consensus (dsDNA) DNA 1: TCGACGCGATTTTTCAAGTGGTTTTCAGTAGC DNA 2: AGCTGCTACTGAAAACCACTTGAAAAATCGCG |  | binds
3 | Gcg -1080 (dsDNA) DNA 1: AGACCATTGAAACAACTGGAGGAGTACTCTGACTGAACTTAATTCTTCAT DNA 2: AGAATGAAGAATTAAGTTCAGTCAGAGTACTCCTCCAGTTGTTTCAATGG | no binding | 
4 | Ins2 -477 (Ins -471 in probe list) (dsDNA) DNA 1: AAGCAGAACTCAGGCAGCAAGGTACTTAATGGTCCCTCCTTCTCCATC DNA 2: AGAGATGGAGAAGGAGGGACCATTAAGTACCTTGCTGCCTGAGTTCT | binds | 
5 | Ins2 -144 (dsDNA) DNA 1: TGCTTTCTGCAGACCTAGCACCAGGCAAGTGTTTGGAAACTGCAGCT DNA 2: CTGAAGCTGCAGTTTCCAAACACTTGCCTGGTGCTAGGTCTGCAGAA | no binding | 

Reference: PMC3050729, “Novel computational analysis of protein binding array data identifies direct targets of Nkx2.2 in the pancreas”
